Experimental data: US20040018971A1

Target: HLA-A*2401 (human)
Test: inhibition of 125I probe peptide binding to purified HLA; IC50 standard/IC50 test

| relative binding ratio | Binder |
| --- | --- |
| 0.0024 | KYTMRRLL [HER2/neu 684-691] |
| 0.0003 | CFVHTVPWDQL [HER2/neu 475-485] |
| 0.018 | CYGLGMEHL [HER2/neu 342-350] |
| -0.0003 | EYHADGGKVPI [HER2/neu 876-886] |
| 0.0002 | DFGLARLLDI [HER2/neu 863-872] |
| 0.0016 | CYQDTILWKDI [HER2/neu 162-172] |
| 0.0005 | PYDGIPAREI [HER2/neu 922-931] |
| 0.0002 | HFNHSGICEL [HER2/neu 257-266] |
| 0.0039 | AFDNLYYW [HER2/neu 1216-1223] |
| 0.0006 | LFEDNYAL [HER2/neu 107-114] |
| 0.015 | KWMALESIL [HER2/neu 887-895] |
| 0.0032 | RMARDPQRF [HER2/neu 978-986] |
| 0.0002 | RFVVIQNEDL [HER2/neu 985-994] |
| 0.012 | IFGSLAFL [HER2/neu 370-377] |
| 0.011 | RFTHQSDVW [HER2/neu 898-906] |
| 0.012 | CYQDTILW [HER2/neu 162-169] |
| 0.0059 | SYLEDVRL [HER2/neu 834-841] |

The next lines start with the binder.

| Binder | relative binding ratio |
| --- | --- |
| AWPDSLPDL [HER2/neu 414-422] | 0.0041 |
| LFRNPHQALL [HER2/neu 485-494] | 0.0014 |
| LMPYGCLL [HER2/neu 800-807] | 0.0076 |
| GYLYISAW [HER2/neu 408-415] | 0.0044 |
| GMGAAKGL [HER2/neu 1091-1098] | -0.0003 |
| DFGLARLL [HER2/neu 863-870] | 0.0005 |
| AFSPAFDNL [HER2/neu 1212-1220] | 0.0011 |
| EYLVPQQGFF [HER2/neu 1022-1031] | 0.012 |
| PMCKGSRCW [HER2/neu 197-205] | 0.0011 |
| SWLGLRSLREL [HER2/neu 451-461] | 0.0036 |
| IWIPDGENVKI [HER2/neu 738-748] | 0.0027 |
| IFHKNNQL [HER2/neu 172-179] | -0.0003 |
| AYSLTLQGL [HER2/neu 440-448] | 0.13 |
| EYVNARHCL [HER2/neu 553-561] | 0.0061 |
| LFRNPHQAL [HER2/neu 485-493] | 0.0002 |
| AFGTVYKGIW [HER2/neu 730-739] | 0.001 |
| RWGLLLALL [HER2/neu 8-16] | 1.3 |
| CMQIAKGMSYL [HER2/neu 826-836] | -0.0003 |
| RFRELVSEF [HER2/neu 968-976] | 0.018 |

| Binder | relative binding ratio |
| --- | --- |
| GMGAAKGLQSL [HER2/neu 1091-1101] | -0.0003 |
| EYLVPQQGF [HER2/neu 1022-1030] | 0.0014 |
| SYGVTVWEL [HER2/neu 907-915] | 0.12 |
| IMVKCWMI [HER2/neu 954-961] | 0.021 |
| LYISAWPDSL [HER2/neu 410-419] | 0.084 |
| AYSLTLQGLGI [HER2/neu 440-450] | 0.023 |
| CFVHTVPW [HER2/neu 475-482] | 0.019 |
| LFEDNYALAVL [HER2/neu 107-117] | 0.0006 |
| PYVSRLLGI [HER2/neu 780-788] | 0.17 |
| AFGTVYKGI [HER2/neu 730-738] | 0.0002 |
| KWMALESI [HER2/neu 887-894] | 0.008 |
| RYSEDPTVPL [HER2/neu 1111-1120] | 0.012 |
| AFGTVYKGIWI [HER2/neu 730-740] | 0.0008 |
| EFAGCKKI [HER2/neu 363-370] | -0.0003 |
| EFAGCKKIF [HER2/neu 363-371] | 0.0003 |
| RWGLLLAL [HER2/neu 8-15] | 0.025 |
| SWLGLRSLR [HER2/neu 451-459] | -0.0003 |
| SMPNPEGRYTF [HER2/neu 281-291] | 0.018 |
